Laboratory results: paper PMC3787135

Substrate: Nc1ncnc2c1ncn2[C@@H]1O[C@H](COP(=O)(O)OP(=O)(O)OP(=O)(O)O)[C@@H](O)[C@H]1O
Experiment: purified protein
Conditions: microtubules; standard assay conditions; apparent Km from gliding velocity

B1: kinesin-II (wild type heterotrimer KLP-11/KLP-20/KAP-1) (Caenorhabditis elegans) (protein)
chain 1: MVEIMKKSSKQETVKVIVRCRPLSSQEIANNYSKIVHMRPQRGQIELKNPKEQDEPSKDFTFDAIYDENSTQSDLYEETFRDLVDSVLNGYNATIFAYGQTGTGKTHTMEGKSSDPEQRGVIYKCIDHIFEHMAASHNQEYLVRASYLEIYQEELRDLLEAESNKKLEIKERPDGGVYVKDLTSKLTRTVGEIHEVMIRGNGHRSVGRTNMNEHSSRSHAIFIITVECSRIGEDGESHITVGRLNLVDLAGSERQSKTGATGERFKEATKINLSLSALGNVISALVDAKSAHIPYRDSKLTRLLQDSLGGNSKTVMVACIGPASYNFEETLGTLRYANRAKNIKNQPKINEDPKDALLREFQEEIEMLREQLKQRKTRSRDGATQSFYDAERAKLEDDIEAIQKDDSLIKHEKDRLIREIQEKHDLLEKERIEQARVAERIANIQSRLIVGSEEDGRLESRTKEQHAQLEKKRRELAEQKRREREMVEALERQEEDTVDLKQTFSDLRTEVEAKTKKLKKMLIKLRQARNEIRDVSGAYSDERQDLDQTIAEVSKELKLKLLIVENFIPRDVSERIKERAEWNEDSFEWNVNAFQSTSSNSSTPLNNTIEVNEDGVFTRSSGADSGVSVSGGNGTPATSQFLDKRLVATPGCRRPMSMCERMLVETAREQFGAQRRPPISGSGSFVEATIPEETIRFCGENVVVFSALERFVPEVTDSDPSTFSNSMMMSARRPSIENLTIDASKVLVPILNQSTMILKNSKNGQARNDTMPPNGSMRRSQN
chain 2: MEGAEKVKVVVRCRPISTTEKLQGHKIAVTCNDEEKAVNIKSLSQEDPPRTFYFDAVFSPNTDQMTVYNVAARPIVENVLKGYNGTIFAYGQTGTGKTFTMAGDLEPVEMRGIIPNSFAHIFDHIAKCQHDTTFLVRVSYLEIYNEEIRDLLSKDHNGNLEIKERPDVGVYVRNLSNPTVENASKMQALMEFGSKNRKVGATAMNLESSRSHAMFTVTIESCRNGLVTQGKLQLVDLAGSERQSKTGAQGERLKEAAKINLSLSTLGNVISSLVDGKSTHIPYRNSKLTRLLQDSLGGNSKTVMIANVGPATYNYDETLSTLRYANRAKNIQNVAKINEDPKDAQLRKFQLEIEALRKILDEENPGDDENQEEAWEAKMQEREVEMEKKRKILEERVNSAVNDEETHRLVKEMMENEAELKKARSEHEKLRSKLEKIEKKLIVGGENLLEKVEEQAKLLEVNNKELEQSKFQEAHLRTQLEERTAVKVEIEERYSSLQEEAFVKSKKIKKVSNELKDARAELKDLEEDHQRQVEAMLDDIRQLRKELLLNIAIIDEYIPVEHVELIEKYVSWSEEHGDWQLKAIAYTGNNMRASAPPAKKEFSNNNQTVPMYYSYRADLGASTAEHRPRTSSKKHRASIRLQQLLT
Vmax: 15.6 µM/min
